What was measured:
[1] = biological target: T1, 食蟹猴CD47抗原 cynoCD47(ARCO), Cynomolgus/Rhesus CD47 protein, Fc Tag, cat. CD7-C5252 (cynomolgus monkey / rhesus monkey); assay: BLI (Octet Red384), as in Example 3, cynoCD47-Fc on AR2G sensor, antibody as analyte, mean of three measurements
T1 construct: Commercial protein

[2] = biological target: 人CD47抗原 CD47-FcLama (human CD47 antigen) (human, UniProt Q08722 19-139); assay: BLI (Octet Red384), CD47-FcLama covalently on AR2G sensor, antibody as analyte (68.9, 34.4, 17.2 nM), 1:1 global fit, mean of three measurements
Chain of 人CD47抗原 CD47-FcLama (human CD47 antigen) (Q08722 19-139): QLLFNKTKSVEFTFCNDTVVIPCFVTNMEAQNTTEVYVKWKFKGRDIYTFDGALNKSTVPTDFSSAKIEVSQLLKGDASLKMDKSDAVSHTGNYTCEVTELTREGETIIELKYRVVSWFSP

[3] = biological target: T2, 人PD-L1抗原 (human PD-L1 antigen) (human, UniProt Q9NZQ7 19-238, limits assumed); assay: BLI (Octet Red384), as in Example 3, human PD-L1 antigen on AR2G sensor, antibody as analyte, mean of three measurements
T2 construct: also called 专有PD-L1抗原
T2 sequence (Q9NZQ7 19-238 limits assumed): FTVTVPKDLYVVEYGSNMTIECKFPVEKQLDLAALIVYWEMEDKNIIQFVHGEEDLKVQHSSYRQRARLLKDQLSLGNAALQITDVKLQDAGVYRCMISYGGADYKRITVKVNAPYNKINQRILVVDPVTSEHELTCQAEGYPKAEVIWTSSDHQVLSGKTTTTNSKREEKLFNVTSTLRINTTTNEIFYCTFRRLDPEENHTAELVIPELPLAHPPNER

- Kd [1]: 57 nM
- Kd [2]: 82.5 nM
- Kd [3]: 2.54 nM
B1: 双特异性抗体09-001 (bispecific antibody 09-001, binds CD47 and PD-L1, common light chain) (bispecific antibody, human IgG1, lambda, L234A L235A)
heavy 1: not shown
light: QTVVTQEPSLSVSPGGTVTLTCGLSSGTVTAINYPGWYQQTPGQAPRTLIYNTNTRHSGVPDRFSGSISGNKAALTITGAQAEDEADYYCALYMGNGGHMFGGGTKLTVLGQPKAAPSVTLFPPSSEELQANKATLVCLISDFYPGAVTVAWKADSSPVKAGVETTTPSKQSNNKYAASSYLSLTPEQWKSHRSYSCQVTHEGSTVEKTVAPTECS
heavy 2: EVQLVESGGGVVRPGGSLRLSCAASGFTFDDYAMSWVRQAPGKGLEWVSDISWSGSNTNYADSVKGRFTISRDNAKNSLYLQMNSLRAEDTALYHCARAPLLLAMTFGVGSWGQGTLVTVSSASTKGPSVFPLAPSSKSTSGGTAALGCLVKDYFPEPVTVSWNSGALTSGVHTFPAVLQSSGLYSLSSVVTVPSSSLGTQTYICNVNHKPSNTKVDKKVEPKSCDGPGGTCPPCPAPEAAGGPSVFLFPPKPKDTLMISRTPEVTCVVVDVSHEDPEVKFNWYVDGVEVHNAKTKPREEQYNSTYRVVSVLTVLHQDWLNGKEYKCKVSNKALPAPIEKTISKAKGQPREPQVCTLPPSREEMTKNQVSLSCAVKGFYPSDIAVEWESNGQPENNYKTTPPVLDSDGSFFLVSKLTVDKSRWQQGNVFSCSVMHEALHNHYTQKSLSLSPGK

— patent CN117858904A (dated 2024)
